Laboratory results: US6544548B1, “Keratin-based powders and hydrogel for pharmaceutical applications” (Keraplast Technologies, Ltd., priority 1999, dated 2003)

How the values were obtained:
Assay type in all cases: physicochemical
[1] = Loading of acetaminophen into keratin tablets (tablet disintegrated in water, HPLC); conditions: acetaminophen bound to H2O2-oxidized keratin, 500 mg tablets
Protocol: Evaluation of the loading of acetaminophen was accomplished by disintegrating a single tablet into a known volume of water over a one week period at room temperature. In addition, that samples were sonicated for 90 minutes prior to sampling. A sample of the solution was withdrawn and analyzed by HPLC.

[2] = Dissolution test (USP rotating paddle) of drug-loaded oxidized keratin tablets in simulated gastric fluid; conditions: 500 mg tablets of drug bound to H2O2-oxidized keratin, 37 C
Protocol: Dissolution tests are performed according to the standard United States Pharmacopoeia (USP) rotating paddle method. In this method, the volume of the dissolution medium is fixed and agitation is provided under defined conditions by the stainless steel paddle. A 1L volume of purified water or simulated gastric fluid (Lot. No. 76H9312, Sigma-Aldrich, St. Louis, Mo.) was used at 37° C.±0.5° C. The temperature of the dissolution medium was maintained at 37° C. by immersing the dissolution flask in a water bath. A cover was used on the system to avoid water loss through evaporation. […]
During the test, small volumes of sample were withdrawn at various time points, for example, every 20 minutes within the first hour (including a 0 time point) and every hour after that for 8 hours. […] High-performance liquid chromatography (HPLC) was performed on the samples and the amount released from the dosage form calculated based on a calibration curve generated from solutions with known concentrations of the compound of interest.
Tablet samples that incorporated the vasoconstrictor norephedrine were prepared by binding the drug to oxidized keratin in an ion exchange step. […] This was accomplished by dissolving a measured amount of norephedrine into ethanol, adding 5 g of oxidized keratin and heating to reflux for 2 hours, followed by stirring at room temperature for 24 hours. […]

[3] = Dissolution test (USP rotating paddle) of albumin from keratin tablets and capsules
Protocol: Dissolution tests are performed according to the standard United States Pharmacopoeia (USP) rotating paddle method. In this method, the volume of the dissolution medium is fixed and agitation is provided under defined conditions by the stainless steel paddle. A 1L volume of purified water or simulated gastric fluid (Lot. No. 76H9312, Sigma-Aldrich, St. Louis, Mo.) was used at 37° C.±0.5° C. The temperature of the dissolution medium was maintained at 37° C. by immersing the dissolution flask in a water bath. A cover was used on the system to avoid water loss through evaporation. After the temperature equilibrated, the samples were allowed to sink to the bottom of the vessel before rotation of the paddle. Rotation speed was kept constant at 50 rpm.
During the test, small volumes of sample were withdrawn at various time points, for example, every 20 minutes within the first hour (including a 0 time point) and every hour after that for 8 hours. Samples were taken from a precise point in the dissolution flask, halfway between the surface of the dissolution medium and the top of the rotating paddle, and not less than 10 mm from the wall of the vessel. The volume withdrawn during sampling was replaced with an equal volume of media, pre-warmed to 37° C. High-performance liquid chromatography (HPLC) was performed on the samples and the amount released from the dosage form calculated based on a calibration curve generated from solutions with known concentrations of the compound of interest.
Samples containing albumin were made in tablet and capsule forms. Tablets were prepared by co-grinding a mixture of 80/20 dry keratin absorbent powder/bovine albumin. The keratin absorbent powder was prepared as described in Section VI. B supra, and the albumin was purchased from Sigma Chemical Co., St. Louis, Mo. (Lot No. 69H1257, Fraction V, 96% purity). The solid mixture was further homogenized by shaking in a closed container. Samples of 500 mg of the powder mixture were made into tablets using a pellet press at 30,000 psi (400 mg keratin, 100 mg albumin). The dissolution profile of these tablets was measured by the rotating paddle method.
Albumin capsules were prepared by dissolving 2 g of albumin in 200 g of deionized water. The albumin solution was added to 8 g of absorbent keratin powder to form a hydrogel. The hydrogel was thoroughly mixed and poured into petri dishes. The water was removed under vacuum at room temperature. After drying for approximately 36 hours, the resulting solid was ground using a mortar and pestle. 400 mg of the ground keratin/albumin powder (320 mg keratin/80 mg albumin) was placed into each of several two-part gelatin capsules (No. 0, Eli Lilly and Co., Indianapolis, Ind.). The dissolution profile of these tablets was measured using the rotating paddle method.

Compound | loading level in keratin tablets [1] | time over which bound drug is released [2] | release of albumin, water versus gastric fluid, compared with tablets ([3]; gelatin capsules (320 mg keratin/80 mg albumin, intimately mixed via hydrogel)) | amount of albumin released over an equivalent time period, capsules versus tablets ([3]; gelatin capsules, intimately mixed via hydrogel) | disintegration and release of albumin ([3]; keratin tablets (400 mg keratin, 100 mg albumin, mechanically mixed), purified water, 37 C) | equilibrium amount of albumin released, gastric fluid versus water ([3]; keratin tablets, simulated gastric fluid) | release of albumin ([3]; keratin tablets, simulated gastric fluid, 37 C)
CC(=O)Nc1ccc(O)cc1 [acetaminophen, 4-Acetaminophenol] | low | 5 h | – | – | – | – | –
CC(N)C(O)c1ccccc1 (centres unmarked) [norephedrine, Phenylpropanolamine] | – | 2 h | – | – | – | – | –
albumin: bovine albumin (Sigma, Fraction V, 96% purity) formulated with keratin absorbent powder as tablets or gelatin capsules | – | – | identical trend | much less material was released | almost immediate and complete | significantly lower | immediate
